Experimental data as given in PMC9093745, “Carbohydrate Metabolism in Bacteria: Alternative Specificities in ADP-Glucose Pyrophosphorylases Open Novel Metabolic Scenarios and Biotechnological Tools” (Frontiers in Microbiology, 2022).

Key:
purified protein [1] = substrate: N[C@H]1[C@@H](OP(=O)(O)O)O[C@H](CO)[C@@H](O)[C@@H]1O; assay: purified protein; settings: ATP co-substrate, Mg2+, pH 8.0, 37°C, no activator
purified protein [2] = substrate: Nc1ncnc2c1ncn2[C@@H]1O[C@H](COP(=O)(O)OP(=O)(O)OP(=O)(O)O)[C@@H](O)[C@H]1O; assay: purified protein; settings: 1 mM GlcN-1P co-substrate, Mg2+, pH 8.0, 37°C

B1: G. stearothermophilus ADP-Glc PPase GlgC/GlgD (Geobacillus stearothermophilus) (protein)
chain: MKKKCIAMLLAGGQGSRLRSLTTNIAKPAVPFGGKYRIIDFTLSNCTNSGIDTVGVLTQYQPLLLHSYIGIGSAWDLDRRNGGVTVLPPYSVSSGVKWYEGTANAVYQNINYIEQYNPDYVLVLSGDHIYKMDYQHMLDYHIAKQADVTISVIEVPWEEASRFGIMNTNEEMEIVEFAEKPAEPKSNLASMGIYIFNWPLLKQYLQIDNANPHSSHDFGKDVIPMLLREKKRPFAYPFEGYWKDVGTVKSLWEANMDLLDENNELDLFDRSWRIYSVNPNQPPQYISPEAEVSDSLVNEGCVVEGTVERSVLFQGVRIGKGAVVKESVIMPGAAVSEGAYVERAIVTPDSIIPPHSSVCPEDADDVVLVTAEWLKQSNEETARKDEA
Purified protein [1]
  Km: 400 µM
Purified protein [2]
  Km: 210 µM
